One molecule from patent publication US20170349647A1 (PANASONIC INTELLECTUAL PROPERTY MANAGEMENT, published 2017) can be followed below.

The target in the test is recombinant nucleoprotein (NP) protein derived from influenza virus H1N1 to which a Flag tag was fus (influenza virus H1N1).
Chain of recombinant nucleoprotein (NP) protein derived from influenza virus H1N1 to which a Flag tag was fus (influenza virus H1N1) (P03466 whole entry): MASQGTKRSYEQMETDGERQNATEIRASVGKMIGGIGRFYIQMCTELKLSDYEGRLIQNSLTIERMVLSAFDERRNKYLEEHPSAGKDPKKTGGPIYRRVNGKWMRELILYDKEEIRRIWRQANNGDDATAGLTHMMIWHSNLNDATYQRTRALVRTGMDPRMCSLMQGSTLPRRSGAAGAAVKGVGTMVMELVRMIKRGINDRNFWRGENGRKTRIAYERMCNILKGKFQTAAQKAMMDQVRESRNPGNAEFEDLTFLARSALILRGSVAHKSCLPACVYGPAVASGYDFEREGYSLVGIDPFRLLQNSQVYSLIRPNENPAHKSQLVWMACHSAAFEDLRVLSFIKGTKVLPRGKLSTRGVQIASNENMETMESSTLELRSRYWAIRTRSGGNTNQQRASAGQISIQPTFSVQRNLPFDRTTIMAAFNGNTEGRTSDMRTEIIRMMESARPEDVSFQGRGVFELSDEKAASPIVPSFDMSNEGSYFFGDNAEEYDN

B1: VHH antibody consisting of the amino acid sequence represented by SEQ ID NO: 08 (VHH)
VHH: QVQLVESGGGLVQAGGSLRLSCAASRTIFNPNVMGWYRQAPGKQRELVADISLSGSTNYADSVKGRFTISRDNAKNTMYLQMNSLKPEDTAVYYCNTNAISGAPGRYWGQGTQVTVSS
As to B1, the Kd turned out to be 0.236 nM.

As a reminder, the Kd is the free concentration of one partner at which half of the binding sites on the other are occupied at equilibrium, for simple one-to-one binding.
